Assay results reported in publication PMC5015959, “The Binding of Plasmodium falciparum Adhesins and Erythrocyte Invasion Proteins to Aldolase Is Enhanced by Phosphorylation” (PLoS ONE, 2016).
Where a SMILES comes first, the peptide text is derived from it. Where no end group is shown, it is not given here. [ ]: non-standard residue; d: D form. The star is where a group is joined. Biotin = O=C1N[C@H]2[C@H](CS[C@H]2CCCCC(=O)*)N1; pT = C[C@@H](OP(=O)(O)O)[C@H](N)C(=O)O; pS = N[C@@H](COP(=O)(O)O)C(=O)O

T1: P. falciparum aldolase (P. falciparum, UniProt Q7KQL9 1-369)
T1 construct: also called fructose 1,6-bisphosphate aldolase; parasite aldolase; source: prepared as described previously [42]
T1 sequence (looked up): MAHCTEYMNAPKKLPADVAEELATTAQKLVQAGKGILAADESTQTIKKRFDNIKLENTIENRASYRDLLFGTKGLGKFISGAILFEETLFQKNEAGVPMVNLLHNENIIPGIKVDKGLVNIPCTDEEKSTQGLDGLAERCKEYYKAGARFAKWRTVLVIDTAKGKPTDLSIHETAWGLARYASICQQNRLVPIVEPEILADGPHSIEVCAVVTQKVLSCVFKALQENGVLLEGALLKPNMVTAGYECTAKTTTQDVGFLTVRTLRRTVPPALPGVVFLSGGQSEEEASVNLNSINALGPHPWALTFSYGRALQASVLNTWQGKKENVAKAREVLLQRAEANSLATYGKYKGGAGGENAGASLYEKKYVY

B1: MTRAP CTD phosphorylated at Thr-459 (peptide)
peptide: Biotin-YFLRKEK[pT]EKVVQEETKEENFEVMFNDDALKGKDNKAMDEEEFWALE
notes: source: phosphorylated synthetic peptide (Biomatik) or peptide phosphorylated in vitro
B2: MTRAP CTD phosphorylated at Thr-459 and Thr-467 (peptide)
peptide: Biotin-YFLRKEK[pT]EKVVQEE[pT]KEENFEVMFNDDALKGKDNKAMDEEEFWALE
notes: as for B1
B3: RH4 CTD phosphorylated at S1667 or S1674 (peptide)
peptide: Biotin-KNSNEPHHIFNIFQKEFSEADNAHSEEKEEYLPVYFDEVEDEVEDEVEDEDENENEVENENEDFNDI
modifications: also: one phosphate at either Ser1667 (pos 18) or Ser1674 (pos 25)
notes: as for B1
B4: RH2B CTD phosphorylated at S3233 (peptide)
peptide: Biotin-DRSNKDECDFDMCEEVNNNDHL[pS]NYADKEEIIEIVFDENEEKYF
modifications: cysteine pairing not given here
notes: as for B1
B5: EBA140 CTD, phosphorylated (peptide)
peptide: Biotin-RMGKSNEEYDIGESNIEATFEENNYLNKLSRIFNQEVQETNISDYSEYNYNEKNMY
modifications: also: phosphorylated, exact sites not determined
notes: also called EBA140 phosphorylated; source: phosphorylated synthetic peptide (Biomatik) or peptide phosphorylated in vitro
B6: EBA175 CTD phosphorylated at T1483 and S1489 (peptide)
peptide: Biotin-KYQSSEGVMNENNENNFLFEVTDNLDKLSNMFNQQVQE[pT]NINDF[pS]EYHEDINDINFKK
notes: as for B1
B7: AMA1 CTD phosphorylated at Ser-610 (peptide)
peptide: Biotin-YKRKGNAEKYDKMDEPQDYGKSNSRNDEMLDPEASFWGEEKRASHTTPVLMEKPYY
modifications: not fully specified (residue 44)
notes: as for B1
B8: MTRAP CTD phosphorylated at Thr-467 (peptide)
peptide: Biotin-YFLRKEKTEKVVQEE[pT]KEENFEVMFNDDALKGKDNKAMDEEEFWALE
notes: as for B1
B9: EBA181 CTD phosphorylated at S1523 and S1528 (peptide)
peptide: Biotin-RKNLDDEKGFYD[pS]NLND[pS]AFEYNNNKYNKLPYMFDQQINVVNSDLYSEGIYDDTTTF
notes: as for B1
B10: RH4 CTD (1650–1716) (peptide)
peptide: Biotin-KNSNEPHHIFNIFQKEFSEADNAHSEEKEEYLPVYFDEVEDEVEDEVEDEDENENEVENENEDFNDI
notes: also called RH4 unmodified; source: synthetic peptide; bought: Biomatik, USA
B11: EBA181 CTD (1511–1567) (peptide)
peptide: Biotin-RKNLDDEKGFYDSNLNDSAFEYNNNKYNKLPYMFDQQINVVNSDLYSEGIYDDTTTF
notes: also called EBA181 unmodified; source: synthetic peptide; bought: Biomatik, USA
B12: AMA1 full length CTD (567–622) (peptide)
peptide: Biotin-YKRKGNAEKYDKMDEPQDYGKSNSRNDEMLDPEASFWGEEKRASHTTPVLMEKPYY
notes: source: synthetic peptide; bought: Biomatik, USA
B13: EBA175 CTD (1445–1502) (peptide)
peptide: Biotin-KYQSSEGVMNENNENNFLFEVTDNLDKLSNMFNQQVQETNINDFSEYHEDINDINFKK
notes: also called EBA175 unmodified; source: synthetic peptide; bought: Biomatik, USA
B14: MTRAP CTD short C-terminal peptide (printed residues 479–498) (peptide)
peptide: Biotin-ALKGKDNKAMDEEEFWALE
notes: as for B12
B15: TRAP full length CTD (530–574) (peptide)
peptide: Biotin-YKFVVPGAATPYAGEPAPFDETLGEEDKDLDEPEQFRLPEENEWN
notes: as for B12
B16: MTRAP full length CTD (452–498), synthetic biotinylated peptide (peptide)
peptide: Biotin-YFLRKEKTEKVVQEETKEENFEVMFNDDALKGKDNKAMDEEEFWALE
notes: as for B12
B17: EBA140 CTD (1155–1210) (peptide)
peptide: Biotin-RMGKSNEEYDIGESNIEATFEENNYLNKLSRIFNQEVQETNISDYSEYNYNEKNMY
notes: also called EBA140 unmodified; source: synthetic peptide; bought: Biomatik, USA
B18: RH2B CTD (3211–3254) (peptide)
peptide: Biotin-DRSNKDECDFDMCEEVNNNDHLSNYADKEEIIEIVFDENEEKYF
modifications: cysteine pairing not given here
notes: also called RH2B unmodified; source: synthetic peptide; bought: Biomatik, USA

What follows are molecules tested against T2, P. falciparum aldolase (Plasmodium falciparum, UniProt Q7KQL9) (assay: biochemical). Conditions: biolayer interferometry, Octet Red.
T2 construct: made in house
Assay type: binding
Text: CTDs of four classes of type 1 membrane protein (AMA1 and the TRAP, EBL and RH families) that are potential adhesins or host cell invasion proteins derived from apical organelles, and present in the merozoite plasma membrane during invasion, were examined for their ability to bind to aldolase using bio-layer interferometry. Streptavidin-coated biosensors were loaded with biotinylated synthetic peptides or recombinant proteins representing either the full length CTDs or shorter C-terminal sequences (Table 1) and titrated with increasing aldolase concentrations. This analysis enabled the calculation of a dissociation constant (Kd) for each pair of proteins as a measure of the strength of interaction between them.
The effect of the CTD phosphorylation on aldolase binding was investigated using biolayer interferometry using phosphorylated synthetic peptides or peptides phosphorylated in vitro (Table 3).
Protein interactions were analysed by biolayer interferometry using the Octet Red system (ForteBio) at 25°C in 96-well microplates, as described previously. All assays were performed in 100 mM Tris-HCl pH 8.0, according to the manufacturer’s instructions. A baseline was established over 1 min, and biotinylated samples were loaded onto streptavidin sensors for 1 min. The sensors were washed for 1 min and then incubated with aldolase at different concentrations (0.05–250 μM) for 1 min, followed by a dissociation phase over 5 min. The experiments were performed in duplicate or triplicate depending on the experiment. The data were analysed as described previously.

Question: With `CC[C@H](C)[C@H](NC(=O)[C@H](Cc1c[nH]cn1)NC(=O)[C@H](Cc1ccc(O)cc1)NC(=O)CCCC[C@@H]1SC[C@@H]2NC(=O)N[C@@H]21)C(=O)N[C@@H](Cc1ccccc1)C(=O)N[C@@H](Cc1ccc(O)cc1)C(=O)N[C@@H](CCCCN)C(=O)N[C@@H](CCCNC(=N)N)C(=O)N[C@@H](CCCCN)C(=O)NCC(=O)N[C@@H](C)C(=O)N[C@@H](CCC(=O)O)C(=O)N[C@@H](CCCCN)C(=O)N[C@@H](CCC(=O)O)C(=O)N[C@@H](CC(C)C)C(=O)N[C@@H](Cc1ccc(O)cc1)C(=O)N[C@@H](CCC(=O)O)C(=O)N[C@@H](CC(N)=O)C(=O)N[C@H](C(=O)N[C@@H](C)C(=O)NCC(=O)N[C@@H](CCCNC(=N)N)C(=O)N[C@@H](Cc1ccc(O)cc1)C(=O)N[C@@H](CCSC)C(=O)N[C@@H](Cc1ccc(O)cc1)C(=O)N[C@@H](CC(=O)O)C(=O)O)C(C)C` [PTRAMP, reference compound] (Biotin-YHIFYKRKGAEKELYENVAGRYMYD-OH; C-terminus assumed) as the molecule, how does the “binding to aldolase (in words)” value read?
Answer: does not bind

Question: Which “binding to aldolase (in words)” value does the source give for “Biotin-KTNSGDNNSNEINEAFEPNDDVLFKEKDEIIEITFNDNDSTI [RH2A]” here?
Answer: did not bind at all

Question: Which “binding to aldolase (in words)” value does the source give for `CSCC[C@H](NC(=O)[C@H](CC(C)C)NC(=O)[C@@H](NC(=O)CCCC[C@@H]1SC[C@@H]2NC(=O)N[C@@H]21)C(C)C)C(=O)N[C@@H](CCC(=O)O)C(=O)N[C@@H](CCCCN)C(=O)N1CCC[C@H]1C(=O)N[C@@H](Cc1ccc(O)cc1)C(=O)N[C@@H](Cc1ccc(O)cc1)C(=O)O` [AMA1 555–562] (Biotin-VLMEKPYY-OH; C-terminus assumed) here?
Answer: did not bind

Same assay, conditions: phosphorylated versus unmodified CTD, from Kd values of Table 3

Question: For “Biotin-DRSNKDECDFDMCEEVNNNDHLSNYADKEEIIEIVFDENEEKYF (cysteines drawn unpaired) [RH2B]”, which “increase in affinity for aldolase following phosphorylation” value is on record?
Answer: 11 fold

Same assay, conditions: same assay as the Kd column; symbol * = no binding

Question: “Biotin-KTNSGDNNSNEINEAFEPNDDVLFKEKDEIIEITFNDNDSTI [RH2A]” was tested. Which Kd did it give?
Answer: > 250 µM

Question: `CSCC[C@H](NC(=O)[C@H](CC(C)C)NC(=O)[C@@H](NC(=O)CCCC[C@@H]1SC[C@@H]2NC(=O)N[C@@H]21)C(C)C)C(=O)N[C@@H](CCC(=O)O)C(=O)N[C@@H](CCCCN)C(=O)N1CCC[C@H]1C(=O)N[C@@H](Cc1ccc(O)cc1)C(=O)N[C@@H](Cc1ccc(O)cc1)C(=O)O` [AMA1 555–562] (Biotin-VLMEKPYY-OH; C-terminus assumed) was tested. Which Kd did it give?
Answer: > 250 µM

These molecules were tested against RH1 CTD phosphorylated at S2950 or T2951 (P. falciparum) (assay: BLI). Conditions: not given.

Question: “P. falciparum aldolase (from UniProt Q7KQL9 1-369) (enzyme)” was tested. Which Kd did it give?
Answer: 2.5 µM

The molecules below were run against RH1 full length CTD (2921–2971) (P. falciparum) (assay: BLI). Conditions: not given.

Question: “P. falciparum aldolase (from UniProt Q7KQL9 1-369) (enzyme)” was tested. Which Kd did it give?
Answer: 6.1 µM

Each molecule was assayed against T1, P. falciparum aldolase (assay: BLI). Conditions: both partners purified.

Question: With B1 as the molecule, how does the Kd read?
Answer: 3.5 µM

Question: Which Kd does the source give for B2 here?
Answer: 0.9 µM

Question: How did the Kd turn out when B3 was run?
Answer: 2.5 µM

Question: How did the Kd turn out when B4 was run?
Answer: 11 µM

Question: B5 was tested. Which Kd did it give?
Answer: 35 µM

Question: Which Kd does the source give for B6 here?
Answer: 38 µM

Question: B7 was tested. Which Kd did it give?
Answer: 44 µM

Question: Which Kd does the source give for B8 here?
Answer: 1.9 µM

Question: How did the Kd turn out when B9 was run?
Answer: 4.7 µM

Target: T1, P. falciparum aldolase
Experiment: BLI
Conditions: both partners purified
Remark: another data set of the same source

Question: For B10, which Kd is on record?
Answer: 3.5 µM

Question: How did the Kd turn out when B11 was run?
Answer: 130 µM

Question: For B12, which Kd is on record?
Answer: 53 µM

Question: With B13 as the molecule, how does the Kd read?
Answer: 96 µM

Question: Which Kd does the source give for B14 here?
Answer: 17 µM

Question: Which Kd does the source give for B15 here?
Answer: 5 µM

Question: With B16 as the molecule, how does the Kd read?
Answer: 13.8 µM

Question: B17 was tested. Which Kd did it give?
Answer: 83 µM

Question: For B18, which Kd is on record?
Answer: 125 µM

Each molecule was assayed against T1, P. falciparum aldolase (assay: BLI; competition: biotinylated AMA1 or RH4 CTD on streptavidin sensor, fixed aldolase (70 μM for AMA1, 20 μM for RH4) with increasing unlabelled MTRAP CTD peptide; Octet Red; duplicate). Conditions: both partners purified.

Question: Which “percent reduction of aldolase binding to RH4 CTD at a 5-fold molar excess of MTRAP to aldolase” value does the source give for YFLRKEKTEKVVQEETKEENFEVMFNDDALKGKDNKAMDEEEFWALE [unlabelled competitor MTRAP CTD peptide] here?
Answer: 56%
